Measurements taken from the nanobody polyreactivity screen of Harvey et al. (2022).

Assay: yeast display, Sf9 membrane polyspecificity reagent, FACS + sequencing; frameworks hold sequencing errors
In short: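 Synthetic nanobody libraries on Saccharomyces cerevisiae BJ5465 were galactose-induced for 36–48 hours, stained 1 hour at 4 °C with 10% biotinylated, detergent-solubilized Sf9 membrane reagent and enriched on streptavidin microbeads. FACS then separated cells into low and high (top ~1%) gates by anti-HA (expression) and streptavidin (reagent binding) fluorescence. Genes were colony-PCR amplified, MiSeq 2 × 250 sequenced and CDR-length filtered. A clone's polyreactivity label is that of its gate of origin.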

Sequence	polyreactivity (PSR sort gate)
QVQLVESGGGLVQAGGSLRFSCAASGITFSSYGMGWYRQAPGKERELVAAISWDSGSTYYADSVKGRFTISRDNAKNTVYLQMNSLKPEQTAVYYCNAVYYSVYRFDYWGQGTQVTVSS	high polyreactivity
QVQLVESGGGLVQAGGSLRFSCAASGRIFRFYAMGWYRQAPGKERELVAAISSRGGSTYYADSVKGRFTISRDNAKNTVYLQMNSLKPEDTAVYYCNAYGSTSQLDYWGQGTQVTVSS	high polyreactivity
QVQLVESGGGLVQAGGSLRFSCAASGRIFRYNAMGWYRQAPGKARELVAAISRSGGSTYYADSVKGRFTISRDNAKNTVYLQMISLKPEDTAVYYCAVGSPYGGRAPCVRGGDYWGQGTQVTVSS	high polyreactivity
QVQLVESGGGLVQAGGSLRFSCAASGRTFNQNAMGWYRQAPGKERELVAAITSRGGSTFYADSVKGRFTISRDNAKNTVYLQMNSLKPEDTAVYYCNAKSWRYYTMGYWGQGTQVTVSS	high polyreactivity
QVQLVESGGGLVQAGGSLRFSCAASGRTFNWYAMGWYRQAPGKERELVAAISSRGGSTYADSVKGRFTISRDNAKNTVYLQMNSLKPEDTAVYYCAARHHGTKYDYWGQGTQVTVSS	low polyreactivity
QVQLVESGGGLVQAGGSLRFSCAASGRTIYYNTMGWYRQAPGKERELVAAINYGGSTYYADSVKGRFTISRDNAKNTVYLQMHSLKPEDTAVYYCNAVTRPKTWRYDYWGQGPQVTVSS	high polyreactivity
QVQLVESGGGLVQAGGSLRFSCAASGSIFDYNAMGWYRQAPGKERELVAAIDWSGSSTYYADSVKGRFTISRDNAKNTVYLQMNSLKPEDTAVYYCNALAYYGMDYWGQGTQVTVSS	low polyreactivity
QVQLVESGGGLVQAGGSLRFSCAASGSIFWYNAMGWYRQAPGKERELVARISSSGDSTYYADSVKGRFTISRDNAKNTVYLQMNSLKPEDTAVYYCNVDYWSISESSWGYYTSYDYWGQGTQVTVSS	high polyreactivity
QVQLVESGGGLVQAGGSLRFSCAASGSTFHRYVMGWYRQAPGKERELVADINSTGGSTYYADSVKGRFTISRDNAKNTVYLQMNSLKPEDTAVYYCARVTRRGPGFSTLYSRYDYWGQGTQVNVSS	low polyreactivity
QVQLVESGGGLVQAGGSLRFSCAASGSTFRAYAMGWYRQAPGKEREFVASISWSGGRTYYADSVKGRFTISRDNAKNTVYLQMNSLIPEDTAVYYCAADYDVLDYGNLRYGFDYWGQGTKVTVSS	low polyreactivity
QVQLVESGGGLVQAGGSLRFSCAASGSTFVYYAMGWYRQAPGKERELVAAITFGGGSTYYADSVKGRFTISRDNAKNTVYLQMNSLKPEDTAVYYCAVYWDDGSAYPPLIVGYDYWGQGTQVTVSS	low polyreactivity
QVQLVESGGGLVQAGGSLRFSCAASRLTFYWYAMGWYRQPPGKERELVAGISWSGGSTYADSVKGRFTITRDNAKNTVYLQLNSLKPEDTAVYYCAADTYYYRGQSYYYWGQGTEVTVSS	high polyreactivity
QVQLVESGGGLVQAGGSLRFSCAPSGRILYKYAMGCYRQAPGKERELVAAISWRGTTTYYADSVKGRFTISRDNAKNTVYLQMNSLKPEDTAVYYCNARVRVRLGRNWSSYYYWGQGTQVTVSS	high polyreactivity
QVQLVESGGGLVQAGGSLRFSCDASGRTFRYYAMGWYRQAPGKERELVAAIRSGGTTYYADSVKGRFTISRDNAKNTVYFQMNSLKPEDTAVYYCAAKVPWKYSRVYRVGFDYWGQGTQVTVSS	high polyreactivity
QVQLVESGGGLVQAGGSLRFSCSASGRTFLIYAMGWYRQAPGKARELVAAINFSGGNTYYADSVKGRFTISRDNAKNTVYLQMNSLKPEDTAVYYCAAGVYSFRYDYWGQGTQVTVSS	low polyreactivity
QVQLVESGGGLVQAGGSLRIICAASGRTLSGYAMGWYRQAPGKERELVAAISSDGRTYYADSVKGRFTISRDNAKNTVYLQMNSLKPEDTAVYYCAARANPYVLKYYYWGQGTQVTVSS	high polyreactivity
QVQLVESGGGLVQAGGSLRISCAASGFIFGKNDMGWYRQATWKERELVAAITIGGSTNYADSVKGRFTFSRDNAKNTVYLQMNSLKPEDTAVYYCNADSYHYGTSLYNYWGQGTQLTVSS	low polyreactivity
QVQLVESGGGLVQAGGSLRISCAASGFIFRLYAMGWYRQAPGKERELVAAIRWSGGSTTYADSVKGRFTISRDNAKNTVYLQMNSLNPEDTAVYYCAATAGRRSVTYGYWGQGTQVTVSS	high polyreactivity
QVQLVESGGGLVQAGGSLRISCAASGFIFRSYAMGWDRKAPGKERELVAAITRSGGSTYYADSVKGRFTISRDNAKTTVYLQMNSLKPEDTAVYYCATRRYWYYILDYGGQGTQVTVSS	high polyreactivity
QVQLVESGGGLVQAGGSLRISCAASGFIFTYYAMGWYRQAPGKERELVAAITKSGTSTYYADSVKGRFTISRDNAKNTVYLQMNSLKPEDTAVYYCNAVLWWDWEYDFYYWGQGTQVTVSS	high polyreactivity
QVQLVESGGGLVQAGGSLRISCAASGFIFWYYTMGRYIQAPGKERELVAAINSGGSTNYADSVKGRFTISRDNAKNTVYLQMNSLKPEDTAVYYCAALVCYSGELFYYWGQGTQVTVSS	low polyreactivity
QVQLVESGGGLVQAGGSLRISCAASGFIFYGNAMGWYIQAPGKERELVASITGGGRTYYADSVKGRFTISRDNAKNTVYLQMNSLKPEDTAVYYCATLLAYRLGSGYDSWGQGTQVTVSS	high polyreactivity

Sequence	polyreactivity (PSR sort gate)
QVQLVESGGGLVQAGGSLRISCAASGFIFYWNAMGWYRQAPGKERELVAGITSGGDTNYADSVKGRFTISRDNAKNTVYLQINSLKPEDTAVYYCAAEGFRGYGYWGQGTQVTVSS	low polyreactivity
QVQLVESGGGLVQAGGSLRISCAASGFTFPSYAMGWYRQAAGKERELVAAINRRGGSTNYADSVKGRFTISRDNAKNTDYLQMNSLKPEDTAVYYCAKQPRLGKYEYYYWGQGTQVTVSS	high polyreactivity
QVQLVESGGGLVQAGGSLRISCAASGFTFSAYAMGWYRQAPGKERELVAAISGSGGRTYYADSVKGRFTISRDNAKNTVYLQMNSLKPEDTAVYYCATSTAGGRETVSQYRYYWGHGTQVTVSS	high polyreactivity
QVQLVESGGGLVQAGGSLRISCAASGFTFVYNTMGWYRQAPGKERELVAAITSRGGSTYYADSVKGRFTISRDNAKNTVYLQMYSLKPEDTAVYYCAAKISVRTSGTRYYYWGQGTQVTVSS	high polyreactivity
QVQLVESGGGLVQAGGSLRISCAASGFTFWYYVMGWYRQAPGKERELVAAISSGGSTYYADSVKGRFTISRDNAKNTVYLQINSLKPEDTAVYYCAASYRSATRQFDYWGQGTQVTVSS	low polyreactivity
QVQLVESGGGLVQAGGSLRISCAASGFTFYRYAMGWYRQAPGKERELVAAISSDGTTYNADSVKGRFTISRDNAKNTVYLQINSLKPEDNAVYYCAKRGYYRSRRYDYWGQGTQVNVSS	high polyreactivity
QVQLVESGGGLVQAGGSLRISCAASGFTFYRYAMGWYRQAPGKESELVAAITRSGRTYYADSVKGRFTISRDNAKNTFYLQMNSLKPEDTAVYYCYADWGLGTQVTVSS	high polyreactivity
QVQLVESGGGLVQAGGSLRISCAASGGIFRYVMGWYRQAPGKERELVATISGRGGSTYYADSVKGRFTISRDNAKNTVYLQMNSLKPEDTAVYYCATHSWRRAGYEYWGQGTQVTVSS	high polyreactivity
QVQLVESGGGLVQAGGSLRISCAASGGIIQYYDMGWYRQAPGKEREFVATISQRGGITYYADSVKGRFTISRDNAKNTVYLQMNSLKPEDTAVYYCAARSYYAVYYWGQGTQVTVSS	high polyreactivity
QVQLVESGGGLVQAGGSLRISCAASGIIFRLNAMGWYRQAPGKERELVAAIRRRGGSTYNADSVKGRFTISRHNAKNTVYLQMNSLKPEDTAVYYGAKDPHGSDFGYWGQGTQVTVSS	low polyreactivity
QVQLVESGGGLVQAGGSLRISCAASGIIFRYYAMGWYRQAPGKERELVARISSGGSTKYADSVKGRYTISRDNAKNTVYLQMNSLKPEDTAVYYCAAEYYSLRYAIFYYWGQGTQVTVSS	high polyreactivity
QVQLVESGGGLVQAGGSLRISCAASGIIFYLYTMGWYRQAPGKERELVAAITRGGSTYYADSVKGRFTISRDNAKNTVYLQMNSLKPEDTAVYYCAAKHGPGYRRWYDYWGQGTQVTVSS	high polyreactivity
QVQLVESGGGLVQAGGSLRISCAASGITFPWYAMGWYRQAPGKERELVAAINRAGNTNYADSVKGRFTISRDNAKNTVYLQMNSLKPEDTSVYYCAARWRYKYTLGYWGQGTQVTVSS	high polyreactivity
QVQLVESGGGLVQAGGSLRISCAASGITFRRYGMGWYRQAPGKERELVATITSSVGSRTYYADSVKGRFTISRDNAKNTVYLQMNSLKPEDTAVYYCAADHRVYDSEYWGQGTQVTVSS	low polyreactivity
QVQLVESGGGLVQAGGSLRISCAASGITFSENDMGWYRQAPGKERELDAAISSGDGTNYADSVKGRFTISRDNEKNTVYLQMNSLKPEDTAVYYCNADGFVDWAWSEQYIPNIHLDYWGQGTQVTVSS	low polyreactivity
QVQLVESGGGLVQAGGSLRISCAASGITFTSYAMGWYRQAPGKERELVAAISSSGVRTYYADSVKGRFTISRDNAKNTVYLQLNSLKPEDTAVYYCATRRRVLDGYDYGGQGTQVTVSS	high polyreactivity
QVQLVESGGGLVQAGGSLRISCAASGLIFADYTMGWYRQAPGKERDLVAVITDGDSTYYADSVKGRFTISRDNAKNTVYLQMNSLKPEDTAVYYCAAELDGSNYTLDYWGQGTQVTVST	low polyreactivity
QVQLVESGGGLVQAGGSLRISCAASGLTFYRYAMGWYRQAPGKERELVAAIRVSGNTYYADSVKGRFTISRDNAKNTVYLEMNSLKPEDTAVYYFAAKPYYFYGMDYWGQGTQVTVSS	high polyreactivity
QVQLVESGGGLVQAGGSLRISCAASGLTFYVYAMGWYRPAPGKERELVAAISGRGGRTYYADSVKGRFTISRDNAKNTVYLQMNSMKPEDTAVYYCAARYPRYRYVEYGYNYWGQGTQVTLSS	high polyreactivity
QVQLVESGGGLVQAGGSLRISCAASGNIFDIYAMGWYRQAPGKERELVAAITSGVRTYYADSVKGRFTISRDNAKNTVYLQMNSLKPEDTSVYYCNAVWRRSHAYGYWGQGTQVTVSS	low polyreactivity
QVQLVESGGGLVQAGGSLRISCAASGNIFDRYAMGWYRQAPGKEMELVAGITWSGGSTYYADSVKGRFTISRDNAKNTVYLQMNSLKPEDTAVYYCAKDPHGSDFGYWGQGTQVTVSS	low polyreactivity
